{
  "source": "paper PMC10366140",
  "test_system": "apRAD51C-CTD-1 R258H (Alvinella pompejana)",
  "experiment": "fluorescence polarization",
  "conditions": "FP: 20 mM HEPES pH 8, 80 mM NaCl, 2.5 mM ATP, 2.5 mM MgCl2, 1 mM DTT, 0.1 mg/mL BSA, 10 nM DNA, 37 C 20 min, EMSA: 20 mM Tris pH 8.0, 150 mM KCl, 4 C 15 min",
  "data": [
    {"sequence": "TTTTTTTTTTTTTTTTTTTT [poly-20dT]", "values": [
      {"measurement": "Kd", "value": 36.5, "unit": "µM"}
    ]}
  ]
}
